These results are taken from article PMC12698695 (Nature Communications, 2025).

The data set deals with the molecule itself. In words: cryo-EM structure.

B1: human PANX1 W74A mutant (natural protein)
chain: MAIAQLATEYVFSDFLLKEPTEPKFKGLRLELAVDKMVTCIAVGLPLLLISLAFAQEISIGTQISCFSPSSFSARQAAFVDSYCWAAVQQKNSLQSESGNLPLWLHKFFPYILLLFAILLYLPPLFWRFAAAPHICSDLKFIMEELDKVYNRAIKAAKSARDLDMRDGACSVPGVTENLGQSLWEVSESHFKYPIVEQYLKTKKNSNNLIIKYISCRLLTLIIILLACIYLGYYFSLSSLSDEFVCSIKSGILRNDSTVPDQFQCKLIAVGIFQLLSVINLVVYVLLAPVVVYTLFVPFRQKTDVLKVYEILPTFDVLHFKSEGYNDLSLYNLFLEENISEVKSYKCLKVLENIKSSGQGIDPMLLLTNLGMIKMDVVDGKTPMSAEMREEQGNQTAELQGMNIDSETKANNGEKNARQRLLDSSC
With B1, the binding result is given as “binds”.
